Data on one molecule can be found in US20220402981A1 (Dana-Farber, published 2022).

Experiment [1] deals with T1, full-length human DCAF15 (human, UniProt Q66K64 1-600).
T1 construct: mature; As in the cryo-EM and cross-linking complexes; also called full-length DCAF15
As to the kind of experiment: cryo-EM at ~4.4 Å with E7820.

The target in experiment [2] is T2, DCAF15split (human, UniProt Q66K64 30-264; Q66K64 383-600).
T2 construct: range 30-264;range 383-600; DCAF15 as two fragments in the crystal structures (PDB 6Q0R, 6Q0V, 6Q0W); also called Strep II Avi-DCAF15NTD (residues 30-264)-Strep II Avi-DCAF15CTD (residues 383-600); DCAF15-NTD; not shown: N-terminal Strep II Avi tag
As to the kind of experiment: crystal structure with E7820.

B1: His6-RBM39RRM2 (other)
chain: GSAGPMRLYVGSLHFNITEDMLRGIFEPFGRIESIQLMMDSETGRSKGYGFITFSDSECAKKALEQLNGFELAGRPMKVGHVTERTDA
notes: RBM39RRM2 as in the crystals, cryo-EM and cross-linking complexes; not shown: N-terminal His6 tag
Consider B1, for which the binding result in experiment [1] and in experiment [2] was “binds” throughout.
